Source: paper PMC3085511 (Nature, 2011)
Read-outs that look alike come from different tables or passages of the source.

Tests used:
[1] = molecular target: T1, mono-ubiquitin (UniProt P0CG48 1-76); assay: ITC
[2] = molecular target: T1, mono-ubiquitin; assay: ITC; remark: listed apart in the source

binding result [1]	binding result [2]	Binder
binds		ARGRWACQSCTFENEAAAVLCSICERPRLA (domain or fragment, human, UniProt Q96EP0 350-379, looked up) [HOIP NZF1 (aa350–379)]
	binds	AASSLPSPLQPSWSCPSCTFINAPDRPGCEMCSTQRPCTWDPLAAAST (domain or fragment, human, UniProt Q9H0F6 340-387, looked up) [SHARPIN NZF (340–387)]
	binds	SHARPIN (SHANK-associated RH domain-interacting protein) (natural protein, human, UniProt Q9H0F6 1-387, looked up) MAPPAGGAAAAASDLGSAAVLLAVHAAVRPLGAGPDAEAQLRRLQLSADPERPGRFRLELLGAGPGAVNLEWPLESVSYTIRGPTQHELQPPPGGPGTLSLHFLNPQEAQRWAVLVRGATVEGQNGSKSNSPPALGPEACPVSLPSPPEASTLKGPPPEADLPRSPGNLTEREELAGSLARAIAGGDEKGAAQVAAVLAQHRVALSVQLQEACFPPGPIRLQVTLEDAASAASAASSAHVALQVHPHCTVAALQEQVFSELGFPPAVQRWVIGRCLCVPERSLASYGVRQDGDPAFLYLLSAPREAPATGPSPQHPQKMDGELGRLFPPSLGLPPGPQPAASSLPSPLQPSWSCPSCTFINAPDRPGCEMCSTQRPCTWDPLAAAST
